Source: patent US20110300138A1 (published 2011)

Tests used:
[1] = target: full length wild type human TSHR (human) (UniProt P16473); assay: TSHR260-AP bridge ELISA, wild type TSHR on wells; IgG at 0.005 µg/mL in HBD
[2] = target: full length wild type human TSHR (human) (UniProt P16473); assay: TSHR260-AP bridge ELISA, wild type TSHR on wells; IgG at 0.05 µg/mL in HBD
[3] = target: full length human TSHR with mutation Arg255 Asp (human) (UniProt P16473); assay: TSHR260-AP bridge ELISA, Arg255 Asp TSHR on wells; IgG at 0.5 µg/mL in HBD
[4] = target: full length human TSHR with mutation Arg255 Asp (human) (UniProt P16473); assay: TSHR260-AP bridge ELISA, Arg255 Asp TSHR on wells; IgG at 10 µg/mL in HBD
[5] = target: full length wild type human TSHR (human) (UniProt P16473); assay: TSHR260-AP bridge ELISA, wild type TSHR on wells; IgG at 0.1 µg/mL in HBD
[6] = target: full length human TSHR with mutation Arg255 Asp (human) (UniProt P16473); assay: TSHR260-AP bridge ELISA, Arg255 Asp TSHR on wells; IgG at 0.01 µg/mL in HBD
[7] = target: full length wild type human TSHR (human) (UniProt P16473); assay: TSHR260-AP bridge ELISA, wild type TSHR on wells; IgG at 1 µg/mL in HBD
wild type TSHR (human) = wild type TSHR (human) (UniProt P16473); assay: cell-based or functional assay
[8] = target: TSHR with Tyr206 mutated to Ala (human) (UniProt P16473); assay: cell-based or functional assay
[9] = target: TSHR with Asp232 mutated to Ala expressed in CHO cells (human) (UniProt P16473); assay: cell-based or functional assay
[10] = target: wild type TSHR expressed in CHO cells (human) (UniProt P16473); assay: cell-based or functional assay
[11] = target: TSHR with Arg255 mutated to Asp expressed in CHO cells (human) (UniProt P16473); assay: cell-based or functional assay
[12] = target: wild type TSHR expressed in CHO cells (human) (UniProt P16473); assay: cell-based or functional assay; remark: listed apart in the source
[13] = target: human thyroid stimulating hormone receptor (TSHR), full length (human) (UniProt P16473); assay: 125I-K1-70 Fab (competitor) binding to TSHR coated tubes; test sample 0.01 µg/mL in assay buffer
[14] = target: thyroid stimulating hormone receptor (full length human TSHR) (human) (UniProt P16473); assay: ELISA, inhibition of TSH-biotin binding to TSHR coated wells; 100 µg/mL, diluted in HBD serum pool
[15] = target: human thyroid stimulating hormone receptor (TSHR), full length (human) (UniProt P16473); assay: 125I-K1-70 Fab (competitor) binding to TSHR coated tubes; test sample 100 µg/mL in assay buffer
TSHR260-AP (human) = assay: TSHR260-AP bridge ELISA (full length TSHR on wells, TSHR260-AP in solution); IgG 100 µg/mL diluted in assay buffer
[16] = target: human thyroid stimulating hormone receptor (TSHR), full length (human) (UniProt P16473); assay: 125I-K1-70 Fab (competitor) binding to TSHR coated tubes; test sample 1 µg/mL in HBD serum
[17] = target: thyroid stimulating hormone receptor (full length human TSHR) (human) (UniProt P16473); assay: ELISA, inhibition of TSH-biotin binding to TSHR coated wells; 100 µg/mL, diluted in assay buffer
[18] = target: thyroid stimulating hormone receptor (TSHR), full length, coated on tubes (human) (UniProt P16473); assay: inhibition of 125I-TSH binding, TSHR coated tubes; antibody 100 µg/mL in assay buffer
[19] = target: thyroid stimulating hormone receptor (full length human TSHR) (human) (UniProt P16473); assay: ELISA: inhibition of M22 Fab-peroxidase (competitor) binding to TSHR coated wells; 1 µg/mL, diluted in assay buffer
[20] = target: TSHR260-alkaline phosphatase (TSHR260-AP) (human) (UniProt P05187); assay: TSHR260-AP bridge ELISA, full length TSHR on wells; 100 µg/mL, diluted in assay buffer
[21] = target: thyroid stimulating hormone receptor (TSHR), full length, coated on tubes (human) (UniProt P16473); assay: inhibition of 125I-TSH binding, TSHR coated tubes; antibody 10 µg/mL in assay buffer

Molecule: M22 IgG (antibody)
- Mean absorbance at 405 nm (absorbance at 405 nm) [1]: 0.032
- Mean absorbance at 405 nm (absorbance at 405 nm) [2]: 0.332
- Mean absorbance at 405 nm (absorbance at 405 nm) [3]: 0.262
- Mean absorbance at 405 nm (absorbance at 405 nm) [4]: 0.551
- Mean absorbance at 405 nm (absorbance at 405 nm) [5]: 0.599
- Mean absorbance at 405 nm (absorbance at 405 nm) [6]: -0.002
- Mean absorbance at 405 nm (absorbance at 405 nm) [7]: 1.17

Molecule: TSH (ligand)
- Cyclic AMP produced (pmol/mL), TSH 3 ng/mL, wild type TSHR (wild type TSHR (human)): 92.2 pmol/mL
- Cyclic AMP produced (pmol/mL), TSH (2) 3 ng/mL run at the end of assay, wild type TSHR (wild type TSHR (human)): 108 pmol/mL
- % inhibition of TSH stimulation, TSH (2) run at the end of assay, mutated TSHR [8]: 16%
- Cyclic AMP produced (pmol/mL), TSH 3 ng/mL, mutated TSHR [8]: 82.9 pmol/mL
- Cyclic AMP produced (pmol/mL), TSH (2) 3 ng/mL run at the end of assay, mutated TSHR [8]: 69.5 pmol/mL
- Mutated/wild type (%) of cyclic AMP produced; TSH 3 ng/mL [8]: 90%
- Mutated/wild type (%) of cyclic AMP produced; TSH (2) 3 ng/mL, run at the end of assay [8]: 64%
- % inhibition of TSH stimulation; TSH (2), run at the end of assay [9]: 0%
- Mutated/wild type (%) of cyclic AMP produced; TSH 3 ng/mL [9]: 70%
- Mutated/wild type (%) of cyclic AMP produced; TSH (2) 3 ng/mL, run at the end of assay [9]: 76%
- % inhibition of TSH stimulation; TSH (2), run at the end of assay [10]: 0%
- % inhibition of TSH stimulation; TSH (2) control [11]: 13%
- Cyclic AMP produced; TSH 3 ng/mL alone [11]: 57.8 pmol/mL
- Cyclic AMP produced; TSH (2) [11]: 50.2 pmol/mL
- Mutated/wild type (%) of cyclic AMP produced; TSH 3 ng/mL alone [11]: 87%
- Mutated/wild type (%) of cyclic AMP produced; TSH (2) [11]: 77%
- % inhibition of TSH stimulation; TSH (2) control [12]: 2%
- Cyclic AMP produced; TSH 3 ng/mL alone [12]: 66.5 pmol/mL
- Cyclic AMP produced; TSH (2) [12]: 64.8 pmol/mL

B1: 5C9 IgG (antibody, from another filing, V domains shown)
VH: EVQLVESGGGLIQPGGSLRLSCAASGFTVSSNYMSWVRQAPGKGLEWVSVTYSGGSTSYADSVKGRFTISRDNSKNTLYLQMNSLRAEDTAVYYCARGGRYCSSISCYARSGCDYWGQGTLVTVSS
VL: AIQMTQSPSSLSASVGDRVTITCRASQSISNYLNWYQQKPGKAPKLLIYAASSLQSGVPSRFSGSGSGTDFTLTISSLQPEDFATYYCQQSYSSPSTTFGQGTKLEIK
- Inhibition of binding (%) [13]: 10.9%
- Inhibition of binding (%) [14]: 37.1%
- Inhibition of binding (%) [15]: 93.3%
- Mean absorbance at 405 nm (absorbance at 405 nm) (TSHR260-AP (human)): 0.669
- Inhibition of binding (%) [16]: 8.1%
- Inhibition of binding (%) [17]: 54.3%
- Inhibition of binding (%) [18]: 82.9%
- Inhibition of binding (%) [19]: 12.1%
- Mean absorbance at 405 nm (absorbance at 405 nm) [20]: 0.669
- Inhibition of binding (%) [21]: 40.5%
